Results on one molecule are retold here after PMC2173062 (The Journal of Cell Biology, 2002).

Assay [1] deals with bovine Hsc70 R447H, recombinant mutant (bovine, UniProt P19120 1-650, R447H). Description: pull-down.
In assay [2] the target is bovine Hsc70, recombinant wild type (bovine, UniProt P19120 1-650). Kind of assay: pull-down.
Chain of bovine Hsc70, recombinant wild type (P19120 whole entry): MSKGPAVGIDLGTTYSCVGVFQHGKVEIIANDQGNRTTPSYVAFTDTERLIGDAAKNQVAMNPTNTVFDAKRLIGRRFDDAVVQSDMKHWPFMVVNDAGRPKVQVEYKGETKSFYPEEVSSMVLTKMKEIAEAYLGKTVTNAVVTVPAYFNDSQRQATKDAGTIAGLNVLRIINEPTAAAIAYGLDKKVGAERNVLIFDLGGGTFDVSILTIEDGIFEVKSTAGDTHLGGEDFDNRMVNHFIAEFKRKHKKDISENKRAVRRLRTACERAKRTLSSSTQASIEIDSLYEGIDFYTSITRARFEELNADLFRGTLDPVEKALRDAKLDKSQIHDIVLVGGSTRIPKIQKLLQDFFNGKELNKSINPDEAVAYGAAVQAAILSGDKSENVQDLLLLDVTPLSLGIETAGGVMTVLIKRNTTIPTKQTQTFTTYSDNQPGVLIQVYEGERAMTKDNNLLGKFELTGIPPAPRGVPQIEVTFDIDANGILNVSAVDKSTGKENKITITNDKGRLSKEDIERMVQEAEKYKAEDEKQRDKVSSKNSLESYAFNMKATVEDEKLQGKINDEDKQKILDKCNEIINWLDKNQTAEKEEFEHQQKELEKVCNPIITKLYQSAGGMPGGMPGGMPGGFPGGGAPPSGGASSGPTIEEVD

Chain of bovine Hsc70 R447H, recombinant mutant (P19120 whole entry R447H): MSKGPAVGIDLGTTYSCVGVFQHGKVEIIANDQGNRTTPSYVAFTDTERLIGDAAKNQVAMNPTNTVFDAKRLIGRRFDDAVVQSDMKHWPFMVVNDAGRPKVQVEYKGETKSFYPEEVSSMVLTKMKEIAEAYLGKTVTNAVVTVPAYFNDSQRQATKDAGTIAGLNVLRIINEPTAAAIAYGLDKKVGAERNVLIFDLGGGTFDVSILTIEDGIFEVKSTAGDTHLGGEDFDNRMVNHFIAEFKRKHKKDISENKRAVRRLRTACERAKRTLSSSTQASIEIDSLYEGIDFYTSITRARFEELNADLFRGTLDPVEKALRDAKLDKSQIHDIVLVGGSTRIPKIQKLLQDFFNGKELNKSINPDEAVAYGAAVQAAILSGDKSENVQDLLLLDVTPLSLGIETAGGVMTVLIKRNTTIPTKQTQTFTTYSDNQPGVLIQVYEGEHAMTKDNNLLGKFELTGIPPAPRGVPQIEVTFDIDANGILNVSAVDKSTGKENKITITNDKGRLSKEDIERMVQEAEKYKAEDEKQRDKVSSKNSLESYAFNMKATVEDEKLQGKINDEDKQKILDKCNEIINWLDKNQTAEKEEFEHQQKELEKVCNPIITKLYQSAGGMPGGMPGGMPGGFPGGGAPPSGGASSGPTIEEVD

B1: GST-J^aux, J-domain of bovine auxilin (residues 813-910) fused to GST (domain or fragment, UniProt Q27974 813-910, looked up)
chain: DPEKLKILEWIEGKERNIRALLSTMHTVLWAGETKWKPVGMADLVTPEQVKKVYRKAVLVVHPDKATGQPYEQYAKMIFMELNDAWSEFENQGQKPLY
As to B1, the binding result in assay [1] and in assay [2] was “binds” throughout.
